Reference: article PMC10499821

molecular target: FITC-DYRK1B_(394–409) (human) (UniProt Q9Y463); test: fluorescence polarisation; conditions: not given

Substance | Kd
Nsp16 (from UniProt P0DTD1 6799-7096) (enzyme) | 3000 nM

molecular target: Nsp3 Ubl1 (SARS-CoV-2) (UniProt P0DTD1); test: fluorescence polarisation; conditions: not given

Substance | fold higher KD than NCOA2 (1074–1089)
N_(216–231) peptide (from UniProt P0DTC9 216-231) | 2 fold

molecular target: GST-tagged Nsp16 (UniProt P0DTD1); test: SPOT array alanine scan; conditions: parent: est. 0; read off a plot

Substance | other: signal change in %
ICA1L_(450–465) on the SPOT array S3A | -57%
ICA1L_(450–465) on the SPOT array P14A | -22%
ICA1L_(450–465) on the SPOT array N7A | -48%
ICA1L_(450–465) on the SPOT array W5A | -100%
ICA1L_(450–465) on the SPOT array L15A | -20%
ICA1L_(450–465) on the SPOT array D11A | -10%
ICA1L_(450–465) on the SPOT array L8A | -35%
ICA1L_(450–465) on the SPOT array F9A | -88%
ICA1L_(450–465) on the SPOT array S16A | -10%
ICA1L_(450–465) on the SPOT array F6A | -50%
ICA1L_(450–465) on the SPOT array M2A | -57%
ICA1L_(450–465) on the SPOT array D1A | -25%
ICA1L_(450–465) on the SPOT array L12A | -20%

molecular target: GST-tagged Nsp3 ADRP (UniProt P0DTD1); test: SPOT array alanine scan; conditions: parent: est. -10; read off a plot

Substance | other: signal change in %
MBOAT1_(16–31) on the SPOT array L26A | -45%
MBOAT1_(16–31) on the SPOT array T18A | 10%
MBOAT1_(16–31) on the SPOT array P22A | -70%
MBOAT1_(16–31) on the SPOT array L23A | -100%
MBOAT1_(16–31) on the SPOT array G16A | -15%
MBOAT1_(16–31) on the SPOT array Y19A | 30%
MBOAT1_(16–31) on the SPOT array L20A | -5%
MBOAT1_(16–31) on the SPOT array G28A | -50%
MBOAT1_(16–31) on the SPOT array S17A | -25%
MBOAT1_(16–31) on the SPOT array L31A | -25%
MBOAT1_(16–31) on the SPOT array H21A | -55%
MBOAT1_(16–31) on the SPOT array P30A | -45%
MBOAT1_(16–31) on the SPOT array L27A | -20%
MBOAT1_(16–31) on the SPOT array I29A | -5%
MBOAT1_(16–31) on the SPOT array S24A | -90%
MBOAT1_(16–31) on the SPOT array E25A | -100%

molecular target: GST-tagged Nsp3 Ubl1 (UniProt P0DTD1); test: SPOT array alanine scan; conditions: parent: est. 0; read off a plot

Substance | other: signal change in %
NCOA2_(1074–1089) on the SPOT array D1081A | -20%
NCOA2_(1074–1089) on the SPOT array E1076A | -40%
NCOA2_(1074–1089) on the SPOT array S1074A | 0%
NCOA2_(1074–1089) on the SPOT array L1080A | -85%
NCOA2_(1074–1089) on the SPOT array L1087A | -40%
NCOA2_(1074–1089) on the SPOT array L1085A | -50%
NCOA2_(1074–1089) on the SPOT array L1083A | -35%
NCOA2_(1074–1089) on the SPOT array Y1084A | -62%
NCOA2_(1074–1089) on the SPOT array Q1082A | -45%
NCOA2_(1074–1089) on the SPOT array R1088A | -30%
NCOA2_(1074–1089) on the SPOT array D1075A | -5%
NCOA2_(1074–1089) on the SPOT array N1089A | -25%
NCOA2_(1074–1089) on the SPOT array L1079A | -10%
NCOA2_(1074–1089) on the SPOT array G1077A | -5%
